Measurements from doi:10.1101/2021.12.06.471412 (bioRxiv, 2021).
Values belong to the binder of their own block, whether it stands above or below them.

What was measured:
purified human TRAP1 = target: T1, purified human TRAP1 (human, UniProt Q12931 60-704); experiment: far-Western, overlay or dot blot
T1 sequence: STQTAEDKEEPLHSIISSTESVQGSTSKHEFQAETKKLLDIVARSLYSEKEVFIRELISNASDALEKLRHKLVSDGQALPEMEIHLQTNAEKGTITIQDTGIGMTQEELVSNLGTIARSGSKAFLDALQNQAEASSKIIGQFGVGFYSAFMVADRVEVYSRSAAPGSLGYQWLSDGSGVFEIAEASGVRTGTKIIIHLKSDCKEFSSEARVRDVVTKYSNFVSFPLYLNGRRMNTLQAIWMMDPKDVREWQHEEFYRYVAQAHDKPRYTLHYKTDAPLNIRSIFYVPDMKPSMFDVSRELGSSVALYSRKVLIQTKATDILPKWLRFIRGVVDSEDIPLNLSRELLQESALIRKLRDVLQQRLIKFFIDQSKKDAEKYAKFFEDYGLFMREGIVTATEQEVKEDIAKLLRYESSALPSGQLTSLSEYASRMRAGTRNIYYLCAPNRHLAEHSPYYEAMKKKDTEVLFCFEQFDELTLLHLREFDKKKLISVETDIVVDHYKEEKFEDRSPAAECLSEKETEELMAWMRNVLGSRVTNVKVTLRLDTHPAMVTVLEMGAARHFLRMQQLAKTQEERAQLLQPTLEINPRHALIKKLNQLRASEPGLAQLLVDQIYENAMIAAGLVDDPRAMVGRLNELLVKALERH

[1] = target: T2, recombinant mature human OSCP (human, UniProt P48047 24-213); experiment: SPR
T2 sequence: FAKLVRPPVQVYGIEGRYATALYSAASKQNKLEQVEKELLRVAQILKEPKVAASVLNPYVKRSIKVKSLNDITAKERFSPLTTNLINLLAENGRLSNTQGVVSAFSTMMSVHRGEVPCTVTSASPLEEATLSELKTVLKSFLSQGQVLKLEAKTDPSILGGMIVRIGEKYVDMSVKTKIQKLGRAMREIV

- binding result (purified human TRAP1): binds
B1: F-ATP synthase subunit α (bovine heart) (natural protein)
chain: QKTGTAEVSSILEERILGADTSVDLEETGRVLSIGDGIARVHGLRNVQAEEMVEFSSGLKGMSLNLEPDNVGVVVFGNDKLIKEGDIVKRTGAIVDVPVGEELLGRVVDALGNAIDGKGPIGSKARRRVGLKAPGIIPRISVREPMQTGIKAVDSLVPIGRGQRELIIGDRQTGKTSIAIDTIINQKRFNDGTDEKKKLYCIYVAIGQKRSTVAQLVKRLTDADAMKYTIVVSATASDAAPLQYLAPYSGCSMGEYFRDNGKHALIIYDDLSKQAVAYRQMSLLLRRPPGREAYPGDVFYLHSRLLERAAKMNDAFGGGSLTALPVIETQAGDVSAYIPTNVISITDGQIFLETELFYKGIRPAINVGLSVSRVGSAAQTRAMKQVAGTMKLELAQYREVAAFAQFGSDLDAATQQLLSRGVRLTELLKQGQYSPMAIEEQVAVIYAGVRGYLDKLEPSKITKFENAFLSHVISQHQALLSKIRTDGKISEESDAKLKEIVTNFLAGFEA

- binding result (purified human TRAP1): binds
B2: F-ATP synthase subunit OSCP (bovine heart) (natural protein)
chain: FAKLVRPPVQIYGIEGRYATALYSAASKQNKLEQVEKELLRVGQILKEPKMAASLLNPYVKRSVKVKSLSDMTAKEKFSPLTSNLINLLAENGRLTNTPAVISAFSTMMSVHRGEVPCTVTTASALDEATLTELKTVLKSFLSKGQVLKLEVKIDPSIMGGMIVRIGEKYVDMSAKTKIQKLSRAMREIL

- binding result (purified human TRAP1): binds
B3: F-ATP synthase subunit g (bovine heart) (natural protein)
chain: MAEFVRNLAEKAPALVNAAVTYSKPRLATFWYYAKVELVPPTPAEIPTAIQSLKKIINSAKTGSFKQLTVKEALLNGLVATEVWMWFYVGEIIGKRGIIGYDV

- binding result (purified human TRAP1): binds
B4: F-ATP synthase subunit b (bovine heart) (natural protein)
chain: PVPPLPEHGGKVRFGLIPEEFFQFLYPKTGVTGPYVLGTGLILYLLSKEIYVITPETFSAISTIGFLVYIVKKYGASVGEFADKLNEQKIAQLEEVKQASIKQIQDAIDMEKSQQALVQKRHYLFDVQRNNIAMALEVTYRERLHRVYREVKNRLDYHISVQNMMRQKEQEHMINWVEKRVVQSISAQQEKETIAKCIADLKLLSKKAQAQPVM

- binding result [1]: binds
B5: recombinant mature human CyPD (natural protein)
chain: not shown
